Kd data for one molecule are collected here from paper PMC11995805 (BBA Advances, 2025).

In this assay the target is T1, Recombinant FLAG-tagged shroom-2 PDZ domain (1st-110th amino acid) (human, UniProt Q13796 1-110).
T1 sequence (looked up): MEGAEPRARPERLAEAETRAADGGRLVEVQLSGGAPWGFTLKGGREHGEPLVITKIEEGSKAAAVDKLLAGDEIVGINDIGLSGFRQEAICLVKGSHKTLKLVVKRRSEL
The assay can be described thus: co-IP.

B1: His-tagged peptide of the carboxy terminus of claudin-11, NH2-…-COOH (peptide)
peptide: {H2N-Met-H2N-H2N-H2N-H2N-H2N-H2N}-PTHAKSAHV-OH
SMILES: CSCC[C@H](N)C(=O)N1CCC[C@H]1C(=O)N[C@H](C(=O)N[C@@H](Cc1c[nH]cn1)C(=O)N[C@@H](C)C(=O)N[C@@H](CCCCN)C(=O)N[C@@H](CO)C(=O)N[C@@H](C)C(=O)N[C@@H](Cc1c[nH]cn1)C(=O)N[C@H](C(=O)O)C(C)C)[C@@H](C)O
As for B1, the equilibrium dissociation constant (Kd) (usually the concentration at which binding is half-saturated) was found to be 3.36 µM.
